In patent US20260315572 (published 2026):
Starred links: 1 amine or outer side, 2 acyl side, 3 side chain; linkers in the order of their positions; H or OH if unused. Non-standard residues stand in square brackets, D forms with d. Groups on a side chain read outwards from the residue. No end group written: not given here. *: point of attachment. C20 diacid = O=C(O)CCCCCCCCCCCCCCCCCCC(=O)*; γGlu = O=C(O)[C@H](CCC(=O)[*:2])N[*:1]; AEEA = NCCOCCOCC(=O)O; Aib = CC(C)(N)C(=O)O

How the values were obtained:
[1] = molecular target: T1, hGIPR (human, UniProt P48546); experiment: competition, [125I]-GIP radioligand
T1 chain: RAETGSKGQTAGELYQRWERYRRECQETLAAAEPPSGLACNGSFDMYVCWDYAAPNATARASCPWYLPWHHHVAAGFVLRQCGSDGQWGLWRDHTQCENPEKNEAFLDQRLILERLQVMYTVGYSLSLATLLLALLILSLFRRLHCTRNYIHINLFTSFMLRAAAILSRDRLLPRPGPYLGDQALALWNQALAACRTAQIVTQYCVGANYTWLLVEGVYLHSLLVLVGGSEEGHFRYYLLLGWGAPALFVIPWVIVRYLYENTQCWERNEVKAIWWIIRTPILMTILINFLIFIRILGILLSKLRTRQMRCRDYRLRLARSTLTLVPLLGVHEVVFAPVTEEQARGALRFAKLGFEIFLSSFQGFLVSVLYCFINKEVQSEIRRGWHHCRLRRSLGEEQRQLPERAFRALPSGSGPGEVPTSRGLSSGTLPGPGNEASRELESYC

[2] = molecular target: T2, hGLP-1R (human, UniProt P43220); experiment: competition, [125I]-GLP-1 radioligand
T2 chain: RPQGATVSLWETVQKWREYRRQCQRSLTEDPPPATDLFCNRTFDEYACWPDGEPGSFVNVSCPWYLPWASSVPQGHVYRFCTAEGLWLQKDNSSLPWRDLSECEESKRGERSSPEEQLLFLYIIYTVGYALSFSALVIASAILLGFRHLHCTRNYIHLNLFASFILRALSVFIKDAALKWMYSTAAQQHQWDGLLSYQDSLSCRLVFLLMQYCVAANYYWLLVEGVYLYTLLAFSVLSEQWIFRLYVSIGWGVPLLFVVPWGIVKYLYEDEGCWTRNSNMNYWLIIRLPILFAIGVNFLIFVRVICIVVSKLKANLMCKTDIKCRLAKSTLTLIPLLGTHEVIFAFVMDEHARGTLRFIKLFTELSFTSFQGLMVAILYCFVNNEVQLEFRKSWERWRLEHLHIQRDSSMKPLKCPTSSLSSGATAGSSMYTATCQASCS

[3] = molecular target: hGCGR (human, UniProt P47871); experiment: competition, [125I]-glucagon radioligand
Chain of hGCGR (P47871 26-477): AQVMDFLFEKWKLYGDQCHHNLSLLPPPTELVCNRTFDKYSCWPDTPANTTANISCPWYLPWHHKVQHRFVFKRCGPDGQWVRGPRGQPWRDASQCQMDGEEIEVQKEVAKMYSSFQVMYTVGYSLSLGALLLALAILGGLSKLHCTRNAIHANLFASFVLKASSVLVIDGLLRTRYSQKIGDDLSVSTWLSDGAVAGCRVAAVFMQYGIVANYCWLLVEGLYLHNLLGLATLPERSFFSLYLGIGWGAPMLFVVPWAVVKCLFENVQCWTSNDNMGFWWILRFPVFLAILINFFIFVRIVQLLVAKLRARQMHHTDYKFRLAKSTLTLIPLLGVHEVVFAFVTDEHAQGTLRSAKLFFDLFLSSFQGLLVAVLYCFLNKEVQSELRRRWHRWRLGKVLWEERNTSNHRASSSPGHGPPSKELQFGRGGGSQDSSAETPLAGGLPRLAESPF

B1: Example 1 (peptide)
chain: Y[Aib]EGTFTSDYSI[Aib]LDKIAQK([AEEA-AEEA-γGlu-C20 diacid])AFVQWLIAGGP-OH
modifications: N-terminus assumed
SMILES: CC[C@H](C)[C@H](NC(=O)[C@H](CC(C)C)NC(=O)[C@H](Cc1c[nH]c2ccccc12)NC(=O)[C@H](CCC(N)=O)NC(=O)[C@@H](NC(=O)[C@H](Cc1ccccc1)NC(=O)[C@H](C)NC(=O)[C@H](CCCCNC(=O)COCCOCCNC(=O)COCCOCCNC(=O)CC[C@H](NC(=O)CCCCCCCCCCCCCCCCCCC(=O)O)C(=O)O)NC(=O)[C@H](CCC(N)=O)NC(=O)[C@H](C)NC(=O)[C@@H](NC(=O)[C@H](CCCCN)NC(=O)[C@H](CC(=O)O)NC(=O)[C@H](CC(C)C)NC(=O)C(C)(C)NC(=O)[C@@H](NC(=O)[C@H](CO)NC(=O)[C@H](Cc1ccc(O)cc1)NC(=O)[C@H](CC(=O)O)NC(=O)[C@H](CO)NC(=O)[C@@H](NC(=O)[C@H](Cc1ccccc1)NC(=O)[C@@H](NC(=O)CNC(=O)[C@H](CCC(=O)O)NC(=O)C(C)(C)NC(=O)[C@@H](N)Cc1ccc(O)cc1)[C@@H](C)O)[C@@H](C)O)[C@@H](C)CC)[C@@H](C)CC)C(C)C)C(=O)N[C@@H](C)C(=O)NCC(=O)NCC(=O)N1CCC[C@H]1C(=O)O
In the case of B1, the Ki [1] is reported as 0.32 nM, the Ki [2] is reported as 10.9 nM and the Ki [3] is reported as > 240 nM.
